Assay: soluble on expression in E. coli; label from the status in PepcDB or PDB records

| Sequence | soluble on expression in E. coli |
| --- | --- |
| MEYLFLRRKRTTATSERQKTLLFKAAERQWKEEFAGKETDIRKVDCNIYKGILYQLEIRQVFLDTSLSLKKLSALLETNQTYLSNVVNKYFGCNLKELVNTYRVEYAKELLCSRRCALTELPCSCGFASKSAFYSAFSRIVGVSPLSYQTQERRRHHLQAVNLEHHHHHH | not soluble |
| MMRTVQLRTLRPCIRAQQQPVRPSTSATAAAATAPAPARKCPSSLFAKLGGREAVEAAVDKFYNKIVADPTVSTYFSNTDMKVQRSKQFAFLAYALGGASEWKGKDMRTAHKDLVPHLSDVHFQAVARHLSDTLTELGVPPEDITDAMAVVASTRTEVLNMPQQ | soluble |
| MQKEKLSALMDGETLDSELLKALTHDPEMQKTWESYHLIRDSMRGDTPDVLHFDISARVMAAIENEPVRQVSPLIPEAQPAPQQWQKMPFWKKVRPWAAQLTQMGVAACVSLAVIVGVQHYNGQSETSQQPETPVFNTLPMMGKASPVSLGVPSEAAPVGSQQQQVQEQRRRINAMLQDYELQRRLHSEQLQFEQAQTQQAAVQVPGIQTLGTQSQ | not soluble |
| GEVASVPLTNYLDSQYFGKIYLGTPPQEFTVLFDTGSSDFWVPSIYCKSNACKNHQRFDPRKSSTFQNLGKPLSIHYGTGSMQGILGYDTVTVSNIVDIQQTVGLSTQEPGDVFTYAEFDGILGMAYPSLASEYSIPVFDNMMNRHLVAQDLFSVYMDRNGQESMLTLGAIDPSYYTGSLHWVPVTVQQYWQFTVDSVTISGVVVACEGGCQAILDTGTSKLVGPSSDILNIQQAIGATQNQYGEFDIDCDNLSYMPTVVFEINGKMYPLTPSAYTSQDQGFCTSGFQSENHSQKWILGDVFIREYYSVFDRANNLVGLAKAI | soluble |
| GSMPTTCGFPNCKFRSRYRGLEDNRHFYRIPKRPLILRQRWLTAIGRTEETVVSQLRICSAHFEGGEKKEGDIPVPDPTVDKQIKIELPPK | soluble |
| MGSDKIHHHHHHMNITNNRQYSWVGSREMCLDEISIKQYGEIVIGKYGGNISAGANKNEDGALVWSNGDWEFAAILDGHNSAESVDLVVNTIQKEYENIKEMMNESIDTVFRSIENHILTIFQSSSFKEKCQRIKGETACLLCVRKENYIWWLSIGDCLVYVFHDELHKLGQYALNQRHFYEWIGNVNTFDVPVPCYSSGIRELRTGNNRIVMVTDGVLEYGERRYETPLNLYNDMNRNNIKLEESVHHVLEHVHHQFGRDSATIISWDVENKGKATYPSDQPDKK | not soluble |
| MKTPARRSKRVNQEESETNVTTRVVLRTRKTNCSKTRAARVRPDYPLTRTTSESEMKLMPPEFFQIDALDLAPRLLGKFMRRDNVVLRITEVEAYRPNDSACHGRFGVTPRTAPVFGPGGHAYVYLCYGLHMMLNIVADKEGVGAAVLIRSCSPVSGMETIQERRGLKTDKPVLLNGPGKVGQALGLSTEWSHHPLYSPGGLELLDGGEDVEKVMVGPRVGIDYALPEHVNALWRFAVADTPWISAPKNTLKPL | soluble |
| MGLDIRFTGVADSSGALHDPDGLDIRGVLEHKKRAGLGSHPSGYEGMTGDELLDEAEYDCLVEATPTNIEDGEPGRSLVLKAMGDGKHVVTSNKGHLALFYSELMEAASEAGVEFMFEASVGGAMPIINLARETLASCTIESVIGILNGTTNFILSRMASEGSSYRQALIEAQELGIAETNPAQDVEGTDAACKAVIIANSILGRPCTLRDVRVEGITGITQGAIELAAQEGYLIKLIAEISGDRLEVGPRLVRMGSPYAVDGTLNMATLRTDLAGEVTAVGRGAGSLETASAMLTDTITIWRKSGLEHHHHHH | not soluble |
| MSLKNNVYILADSVVTPLGQSTEENMEKLYSLQSAIRTYTHPQIGTFYASKFEDGKSFQIKKDAAGKTKIERLFISCIEKALERTEIDVENANVLFVFASTKGNVEYLTDETFDKNRLRIGITAQDVTAYFNNPNTPIVVSNACISGLQAIQYGYEVLQDNRYTHVVVTGADCFSEFILSGFHSFQALSPFPCKPFDKARAGLSLGEGCGTLILSNKKTDAAAIEILSVVSSNDANHLSGPSRTGEGLSSAILGAINEAGITAEQIDVISAHGTATLYNDEMESMAFKTANLEAKAVYSVKGNIGHTLGAAGIIETIYLAQSLQNNMLVPSIGFTETGTSVELNVTRQSTLKTMQIGLKTASGFGGGNTALLLKKEGHHHHHH | not soluble |
| MGSDKIHHHHHHMREVHVNDIKEAVKEAIIEANCVLPREVRVAFQEALKREESPIGREVLTQILENAEIAQYYYMPYCQDTGVDVIFVFLGQDVHVVGGSLEDAINQGVREATEEGYLRASMVWDPVFERKNTKDNTPAIIHYEVVPGDRVKIVVAPKGAGSENTSRLAMLKPADGWEGVKKFILETVKFAGPNACPPFTVGVGIGGNFEYCAYLAKKALLRPVGKRHENPLIAKVEEELLEEINKIGWGPMGFGGTVTAVDVKVEMYPCHIASLPVAVNIQCHANRHAERVV | not soluble |
| MGSDKIHHHHHHMNPKMIRSLKAFTRTVELNSMSAAANELHMTVSAISQQLQRLENDNGISLFHRNTRSLSLTEAGQVFYQSCLDMLAIAAKNQERWDQLTNQPQGQIKIIAPVGFGGGLLSEPLKQLQHEFANVSFQLHMTDEPIDLITAGADLAIRIGPLADSTLYARHLADWHMVPCIAAEHPAAENSIKSFDDLPEGCFIGHIPSLPNKDFPKPKVLLNNMQTVVQLTLDGVGYALLPQPEIKHYIESGRLLRLLPEWEGSPYSVHAVLPIKDNIPAKTERTIEVLSHFFHRL | not soluble |
| MSPSKLSNDETPPDLDFRFTGIKQRLIKSENVKQVTASWKRLLVEINKEFTEIAKIGPSYVPKCDFIDIKDNKLPQQVSELFKQRGCLMIENVIDVDRIDIWFNELVEFCKTHPETAGYTFPNPTSWYNVFWSKPQTEARFHPNIKAIFKAMSKEFYVEDKENCLIDLDTQLVYGDRIRIREPGKAAALPLHLDSSSIERWEDIMYSEVYKSIFEGDWENWDAFKLDERTYSKENLYKDEDDTGGKSTICSSFRTLQGWLALSNNKSGEGTLRVLPSLKLSMAYIMLRPFFWKDPESGNIDDYEIDMITPKFPGTVPGTGQLFLDKFYPHLHQGIISIPDVKKGSFVFWHCDLPHEVDREHNGNGHSSVLYYGQTPLSITNIQTLLDTRDAFLKNISPADYRSQLNEEEKQKEFQGANIDDLKNDIDSKRSMGLEEFEIPENMSGGQAKIRSIANQALKTGGFNVDKYIHHAAK | soluble |
| MYLTKEEEQILNGEAGETLRQAIQILVALGDIYGADRLIPIKSAQIAGVSYKTIGDAGLEWISDLEGQVKVPAILNPAGMDLEDWERLRISPEFAEKQKEIVQAYKKLGIRCECTCTPYTLEGFSVSYGDHLAWSESSAISYANSVIGARTNREGGPSALSAALLGKTANYGFHLDKNRVPEVSVSVECSLKESDYGALGYVAGKLIGNRVPIFQLRSKPEKDELKSLGAAMAASGAVALYHVKGVTPEACRMDFEEPEEKIIIERSQLDEVYESKGKEPELITIGCPHCSAAELKKAAELLKGKTVSKETWIFTSRELAERYPEYIRTIEESGAKVVCDTCMVVSPATNSYSCVMVNSGKAFAYVPGMCGAQSVYGNMEACINKATGGKERKAGDSHLEHHHHHH | not soluble |
| MGSDKIHHHHHHMKICVLYSGGKDSTYALHWAVFKGFEVVCLITLIPKREDSWMFQYPNVIYTKYQAEAMDFKLITFGTSGEKDKELEDLKKALLQAKNEGADGIVSGALLSDYQRLNISIIAEELGLKTYTPLWRKSQEEYMRWLVKEGFKFIITSASAYGFPFDLVGKEITTEDVEKIIERARRYGFNPAFEGGEAETFVTYAPLFKTQLRVNGKLKRISEYECRYEITDIH | not soluble |
| MACCYNSPRRLEKSFVLDGVAVSTMAQAYSIMRPKLWSAIPPYNPQLDHHSRRYFRSRVVPPILRKTDQDHGGTGRDGWIVDYFHIFGQGQRYLNRRNWAGAGHSLQQVSGHDYYNSNPKAITTGLNGRFGYRRNTPALRQHTSVFGEVTPFPISEDIASQGLTCVFKTDV | not soluble |
| MAHHHHHHMGTLEAQTQGPGSMKQAYDNNNIFAKLIRNEIPSVRVYEDDDVIAFMDIMPQAPGHTLVIPKKGSRNLLDADTETLFPVIKAVQKIAKAVKKAFQADGITVMQFNEAASQQTVYHLHFHIIPRMEGIELTPHNNIITPTEILEENAKKIRAAL | soluble |
| MKADHPEDIEDIKELIAQTENEQVEFKETTGQLERGMETLCAFLNGEGGTVLFGITDKGKIIGQEVADVTKRSIAEAINRLEPTANVHVFYIPLPDSSKKIIALHVENSRDNRPFCYKSRPYYRVESVTSAMPQAVYNQLLIIRDEAKYRWELFENPKLSLQDMDENEILKTVRLGIECGRLPENTGNNLSIILEKFGLLVNGVLNNAAAVLFANRELIEYPQCLLRLARFKGTDKMVFMDNQRVQGNLFQLLDSAMTFIFKHLSLSGTTEALEREEHLTIPYKAIREGIINSLCHRQFRTPGGSVGIAIYDDRVEIENPGTFPHGWDMERMKSEHCSEPRNPLIANVLYKRKLLENWGRGISLMTEECRKANLPEPEFKLANGFVILVFRYGTNNHTSTMQVPHKHHISTIQVQSLLNIMEYNTYSVKEMMELLELKNRSYFSKEYLKPAVETGVIEPIFPDQPKSPKQKYRLTEKGKALLEKRLEHHHHHH | soluble |
| MVQIIFDSKTGNVQRFVNKTGFQQIRKVDEMDHVDTPFVLVTYTTNFGQVPASTQSFLEKYAHLLLGVAASGNKVWGDNFAKSADTISRQYQVPILHKFELSGTSKDVELFTQEVERVVTKSSAKMDPVK | soluble |
| MTSSDKSLSHDVFVYGSFQEPSVVNLILECSPVMVPAQLHGYHVYRLKGRLHACISPSENGLINGKILTGLTDSQLENLDMIEGSEYVRKTVEVVLTDTSEKKQVETYVWANKDDPNLYGEWDFEEWRRLHMDKFIEASTKFIEWKKNPDGRSREEFEKFVFDDPPTAA | soluble |
| MSLGKRLKEARQKAGYTQKEAAEKLNIGNNNLSNYERDYRDPDTDTLLKLSNLYNVSTDYLLGKDEVSKKNETDLLNKTINEAIQELKDEDTLLFMNDGEFDEETARLVKKALKNGIKFIDELKKKE | not soluble |
| TRTEISPGKAPFTIEHNQTVVTIGSCFSDMIGEKLQYYKFDVLANPFGTTFNPISIFQLLTIAIEKKFNPFPASLGEIWYDHQFHSEVSALSAEALHELTNERIAAATKSLARASCLVITLGSAWVYRHVETNTIVNNCHKQSGRYFKKELLSVKHILEDFETVYAKLKELNPSIKIIFTVSPVRHIKDTLQLNSVSKAILLSSVHYMCEQHTDCHYFPSYEIQMDDLRDYRYYAEDLIHPSKQAEKYIWKKLSNWVFSSDLLAALEEWDQLQKLLHHKAF | not soluble |
| MGSDKIHHHHHHMSIYNSIGLHYSKTRVPDIRIVNKIIDLLNLPKNSIIADIGAGTGGYSLALANKGFLVNAIEPSLVMQKQAVEHPQVKWFTGYAENLPLLDNSVDTVVSILAIHHFSHLPKAFQEMHRIIKNGAIILLTFDIRLAQKIWLYDYFPFLWEDALQFLPLNEQINLIQINTKRRVEAIPLLLPYDLSDLFAAAGWRRPELYLQAEVRAGISSLALANQDLVDQGVKLLTADLSSEKWRKQYGDIHNLTEIDIGYRFIHTTLNN | not soluble |

From the DeepSol protein solubility set
